The source of these data is patent publication US20210230570.

Where a chain is given by its changes, count along the chain named. Names may count otherwise.

This data set addresses Factor X (FX), P00742.

Chain of Factor X (FX), P00742 (P00742 whole entry, looked up): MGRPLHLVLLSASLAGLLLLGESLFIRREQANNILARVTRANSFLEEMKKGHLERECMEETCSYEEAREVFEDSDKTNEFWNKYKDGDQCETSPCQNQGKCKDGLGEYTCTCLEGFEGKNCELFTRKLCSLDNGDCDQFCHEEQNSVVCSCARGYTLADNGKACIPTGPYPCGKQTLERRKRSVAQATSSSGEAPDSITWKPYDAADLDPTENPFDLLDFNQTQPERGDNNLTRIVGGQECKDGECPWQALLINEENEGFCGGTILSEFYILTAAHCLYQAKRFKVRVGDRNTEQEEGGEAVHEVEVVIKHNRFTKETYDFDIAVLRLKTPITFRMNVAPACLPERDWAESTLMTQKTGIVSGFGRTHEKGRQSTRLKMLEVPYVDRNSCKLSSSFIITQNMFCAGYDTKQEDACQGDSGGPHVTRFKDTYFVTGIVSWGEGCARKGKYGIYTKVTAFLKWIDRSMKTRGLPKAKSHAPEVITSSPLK

B1: FIXa-Y155F/K247N/N249S/R318Y/R338E/T343R (protein)
chain 1: YNSGKLEEFVQGNLERECMEEKCSFEEAREVFENTERTTEFWKQYVDGDQCESNPCLNGGSCKDDINSYECWCPFGFEGKNCELDVTCNIKNGRCEQFCKNSADNKVVCSCTEGYRLAENQKSCEPAVPFPCGRVSVSQTSKLTR
chain 2: VVGGEDAKPGQFPWQVVLNGKVDAFCGGSIVNEKWIVTAAHCVETGVKITVVAGEHNIEETEHTEQNRSVIRIIPHHNYNAAINKYNHDIALLELDEPLVLNSYVTPICIADKEYTNIFLKFGSGYVSGWGRVFHKGYSALVLQYLRVPLVDRATCLESTKFRIYNNMFCAGFHEGGRDSCQGDSGGPHVTEVEGTSFLTGIISWGEECAMKGKYGIYTKVSRYVNWIKEKTKLT
The kcat is the number of substrate molecules converted per active site and unit of time at saturation. A word on the kcat/KM: it is the turnover number divided by the Michaelis constant. For B1, the kcat turned out to be 8.5 s⁻¹ and the kcat/KM worked out at 3.6e+08 M⁻¹ s⁻¹.

B2: FIXa-K228N/K247N/N249S/R318Y/R338E/T343R/R403E (protein)
chain 1: B1 chain 1
chain 2: B1 chain 2 with K48N, R223E
B2: the kcat (s^-1) for activation of FX by FIXa in the Xase complex (FVIIIa, PC/PS vesicles, Ca2+), fluorogenic Spectrafluor FXa read-out was 10.9 s⁻¹ and the kcat/KM was 2.9e+08 M⁻¹ s⁻¹.

B3: FIXa-Y155F/R338E/T343R/R403E (protein)
chain 1: B1 chain 1
chain 2: B1 chain 2 with N67K, S69N, Y138R, R223E
With B3, the kcat was found to be 5.2 s⁻¹.

B4: FIXa-R338E/T343R/R403E (protein)
chain 1: B1 chain 1
chain 2: B1 chain 2 with N67K, S69N, Y138R, R223E
For the protein B4, the kcat worked out at 6.9 s⁻¹.

B5: FIXa-R338E/T343R/R403E/E410N (protein)
chain 1: B1 chain 1
chain 2: B1 chain 2 with N67K, S69N, Y138R, R223E, E230N
By KM is commonly meant the concentration of substrate that gives half-maximal velocity. Turning to B5, the Michaelis-Menten constant (KM) amounted to 0.0347 µM and the kcat of FX activation by FIXa in the Xase complex (FVIIIa, PC/PS vesicles, Ca2+) was found to be 9.8 s⁻¹.

B6: FIXa-Y155F/R318Y/R338E/T343R/R403E/E410N (protein)
chain 1: B1 chain 1
chain 2: B1 chain 2 with N67K, S69N, R223E, E230N
Turning to B6, the KM was 0.0272 µM and the kcat of FX activation by FIXa in the Xase complex (FVIIIa, PC/PS vesicles, Ca2+) was 7.8 s⁻¹.

B7: FIXa-K228N/K247N/N249S/R318Y/R338E/T343R/R403E/E410N (protein)
chain 1: B1 chain 1
chain 2: B1 chain 2 with K48N, R223E, E230N
For the protein B7, the kcat came out at 9.9 s⁻¹.

B8: FIXa-Y155F/N260S/R318Y/R338E/T343R/R403E/E410N (protein)
chain 1: B1 chain 1
chain 2: B1 chain 2 with N67K, S69N, N80S, R223E, E230N
Take B8: the kcat came out at 5.8 s⁻¹.

B9: FIXa-Y155F/I251S/R338E/T343R/R403E (protein)
chain 1: B1 chain 1
chain 2: B1 chain 2 with N67K, S69N, I71S, Y138R, R223E
With B9, the kcat was 5.9 s⁻¹.

B10: FIXa-K228N/I251S/R318Y/R338E/R403E/E410N (protein)
chain 1: B1 chain 1
chain 2: B1 chain 2 with K48N, N67K, S69N, I71S, R163T, R223E, E230N
Consider B10, for which the KM worked out at 0.0364 µM and the kcat of FX activation by FIXa in the Xase complex (FVIIIa, PC/PS vesicles, Ca2+) was 7.5 s⁻¹.

B11: FIXa-Y155F/R338E/T343R/E410N (protein)
chain 1: B1 chain 1
chain 2: B1 chain 2 with N67K, S69N, Y138R, E230N
With B11, the kcat came to 6 s⁻¹ and the catalytic efficiency (kcat/KM) stood at 3.5e+08 M⁻¹ s⁻¹.

B12: FIXa-Y155F/K247N/N249S/R318Y/R338E/T343R/R403E (protein)
chain 1: B1 chain 1
chain 2: B1 chain 2 with R223E
B12: the kcat came to 10.6 s⁻¹.

B13: FIXa-K247N/N249S/R318Y/R338E/T343R/R403E (protein)
chain 1: B1 chain 1
chain 2: B1 chain 2 with R223E
For the protein B13, the kcat was determined as 9.2 s⁻¹.

B14: FIXa-Y155F/K247N/N249S/R318Y/R338E/T343R/R403E/E410N (protein)
chain 1: B1 chain 1
chain 2: B1 chain 2 with R223E, E230N
Take B14: the KM is 0.0257 µM and the kcat of FX activation by FIXa in the Xase complex (FVIIIa, PC/PS vesicles, Ca2+) came to 9.7 s⁻¹.

B15: FIXa-Y155F/N260S/R338E/T343R/R403E (protein)
chain 1: B1 chain 1
chain 2: B1 chain 2 with N67K, S69N, N80S, Y138R, R223E
Consider B15, for which the catalytic constant (kcat) is 6.4 s⁻¹.

B16: FIXa-R318Y/R338E/T343R/R403E (protein)
chain 1: B1 chain 1
chain 2: B1 chain 2 with N67K, S69N, R223E
With B16, the KM was 0.0443 µM and the kcat of FX activation by FIXa in the Xase complex (FVIIIa, PC/PS vesicles, Ca2+) came to 6.7 s⁻¹.

B17: FIXa-Y155F/K247N/N249S/R338E/R403E/E410N (protein)
chain 1: B1 chain 1
chain 2: B1 chain 2 with Y138R, R163T, R223E, E230N
B17: the Michaelis-Menten constant (KM) is 0.0487 µM and the kcat of FX activation by FIXa in the Xase complex (FVIIIa, PC/PS vesicles, Ca2+) was 5 s⁻¹.

B18: FIXa-K247N/N249S/R318Y/R338E/T343R (protein)
chain 1: B1 chain 1
chain 2: B1 chain 2
On to B18, for which the kcat is 8 s⁻¹ and the catalytic efficiency (kcat/KM) was found to be 3.9e+08 M⁻¹ s⁻¹.

B19: FIXa-K247N/N249S/R338E/R403E/E410N (protein)
chain 1: B1 chain 1
chain 2: B1 chain 2 with Y138R, R163T, R223E, E230N
Regarding B19, the Michaelis constant (KM) is 0.025 µM and the kcat of FX activation by FIXa in the Xase complex (FVIIIa, PC/PS vesicles, Ca2+) came out at 4.8 s⁻¹.

B20: FIXa-K228N/K247N/N249S/R318Y/R338E/T343R/E410N (protein)
chain 1: B1 chain 1
chain 2: B1 chain 2 with K48N, E230N
On to B20, for which the kcat (s^-1) for activation of FX by FIXa in the Xase complex (FVIIIa, PC/PS vesicles, Ca2+), fluorogenic Spectrafluor FXa read-out came to 4.7 s⁻¹ and the kcat/KM came out at 1.3e+08 M⁻¹ s⁻¹.

B21: FIXa-N260S/R318Y/R338E/T343R/R403E/E410N (protein)
chain 1: B1 chain 1
chain 2: B1 chain 2 with N67K, S69N, N80S, R223E, E230N
B21: the Michaelis constant (KM) was determined as 0.0321 µM and the kcat of FX activation by FIXa in the Xase complex (FVIIIa, PC/PS vesicles, Ca2+) was found to be 8.9 s⁻¹.

B22: FIXa-D104N/K106S/R318Y/R338E/T343R/R403E/E410N (protein)
chain 1: B1 chain 1 with D104N, K106S
chain 2: B1 chain 2 with N67K, S69N, R223E, E230N
As for B22, the Michaelis constant (KM) came out at 0.0266 µM and the kcat of FX activation by FIXa in the Xase complex (FVIIIa, PC/PS vesicles, Ca2+) is 5.7 s⁻¹.

B23: FIXa-Y155F/K228N/K247N/N249S/R318Y/R338E/T343R/R403E/E410N (protein)
chain 1: B1 chain 1
chain 2: B1 chain 2 with K48N, R223E, E230N
Take B23: the kcat came to 9.4 s⁻¹.

B24: FIXa-Y155F/R338E/T343R/R403E/E410S (protein)
chain 1: B1 chain 1
chain 2: B1 chain 2 with N67K, S69N, Y138R, R223E, E230S
Regarding B24, the kcat worked out at 6.8 s⁻¹.

B25: FIXa-K228N/R318Y/R338E/T343R/R403E/E410N (protein)
chain 1: B1 chain 1
chain 2: B1 chain 2 with K48N, N67K, S69N, R223E, E230N
Turning to B25, the kcat (s^-1) for activation of FX by FIXa in the Xase complex (FVIIIa, PC/PS vesicles, Ca2+), fluorogenic Spectrafluor FXa read-out is 10.5 s⁻¹ and the kcat/KM was determined as 2.7e+08 M⁻¹ s⁻¹.

B26: FIXa-R318Y/T343R/E410N (protein)
chain 1: B1 chain 1
chain 2: B1 chain 2 with N67K, S69N, E158R, E230N
As to B26, the kcat (s^-1) for activation of FX by FIXa in the Xase complex (FVIIIa, PC/PS vesicles, Ca2+), fluorogenic Spectrafluor FXa read-out is 3.2 s⁻¹ and the specificity constant (kcat/KM) was determined as 6.2e+07 M⁻¹ s⁻¹.

B27: FIXa-Y155F/R318Y/T343R/R403E/E410N (protein)
chain 1: B1 chain 1
chain 2: B1 chain 2 with N67K, S69N, E158R, R223E, E230N
Turning to B27, the Michaelis-Menten constant (KM) amounted to 0.034 µM and the kcat of FX activation by FIXa in the Xase complex (FVIIIa, PC/PS vesicles, Ca2+) was 8.8 s⁻¹.

B28: FIXa-Y155F/K247N/N249S/R403E/E410N (protein)
chain 1: B1 chain 1
chain 2: B1 chain 2 with Y138R, E158R, R163T, R223E, E230N
Consider B28, for which the kcat is 2.7 s⁻¹ and the kcat/KM worked out at 2.4e+07 M⁻¹ s⁻¹.

B29: FIXa-K228N/K247N/N249S/R318Y/T343R/R403E/E410N (protein)
chain 1: B1 chain 1
chain 2: B1 chain 2 with K48N, E158R, R223E, E230N
For B29, the kcat (s^-1) for activation of FX by FIXa in the Xase complex (FVIIIa, PC/PS vesicles, Ca2+), fluorogenic Spectrafluor FXa read-out worked out at 8.1 s⁻¹ and the specificity constant (kcat/KM) is 7.1e+07 M⁻¹ s⁻¹.

B30: FIXa-Y155F/R318Y/R338E/T343R/R403E (protein)
chain 1: B1 chain 1
chain 2: B1 chain 2 with N67K, S69N, R223E
Take B30: the KM came to 0.034 µM and the kcat of FX activation by FIXa in the Xase complex (FVIIIa, PC/PS vesicles, Ca2+) stood at 8.2 s⁻¹.

B31: FIXa-Y155F/K228N/I251S/R318Y/R338E/R403E/E410N (protein)
chain 1: B1 chain 1
chain 2: B1 chain 2 with K48N, N67K, S69N, I71S, R163T, R223E, E230N
As to B31, the KM turned out to be 0.0393 µM and the kcat of FX activation by FIXa in the Xase complex (FVIIIa, PC/PS vesicles, Ca2+) amounted to 5.3 s⁻¹.

B32: FIXa-Y155F/R318Y/T343R/E410N (protein)
chain 1: B1 chain 1
chain 2: B1 chain 2 with N67K, S69N, E158R, E230N
B32: the kcat (s^-1) for activation of FX by FIXa in the Xase complex (FVIIIa, PC/PS vesicles, Ca2+), fluorogenic Spectrafluor FXa read-out was 5 s⁻¹ and the kcat/KM amounted to 1.5e+08 M⁻¹ s⁻¹.

B33: FIXa-R318Y/R338E/T343R/R403E/E410S (protein)
chain 1: B1 chain 1
chain 2: B1 chain 2 with N67K, S69N, R223E, E230S
For the protein B33, the kcat is 7.6 s⁻¹.

B34: FIXa-Y155F/R338E/T343R/R403E/E410N (protein)
chain 1: B1 chain 1
chain 2: B1 chain 2 with N67K, S69N, Y138R, R223E, E230N
Take B34: the Michaelis-Menten constant (KM) is 0.0259 µM and the kcat of FX activation by FIXa in the Xase complex (FVIIIa, PC/PS vesicles, Ca2+) was 5.7 s⁻¹.

B35: FIXa-Y155F/K247N/N249S/T343R/E410N (protein)
chain 1: B1 chain 1
chain 2: B1 chain 2 with Y138R, E158R, E230N
Turning to B35, the kcat was determined as 7.9 s⁻¹ and the catalytic efficiency (kcat/KM) stood at 2.8e+08 M⁻¹ s⁻¹.

B36: FIXa-Y155F/K247N/N249S/T343R/R403E (protein)
chain 1: B1 chain 1
chain 2: B1 chain 2 with Y138R, E158R, R223E
Regarding B36, the catalytic constant (kcat) came to 4.7 s⁻¹.

B37: FIXa-Y155F/R318Y/R338E/T343R/E410N (protein)
chain 1: B1 chain 1
chain 2: B1 chain 2 with N67K, S69N, E230N
In the case of B37, the KM was found to be 0.0256 µM and the kcat of FX activation by FIXa in the Xase complex (FVIIIa, PC/PS vesicles, Ca2+) is 9.2 s⁻¹.
